Measured values taken from patent publication US9968687B2, “Anti-DLL3 antibody drug conjugates” (AbbVie Stemcentrx LLC, priority 2013, dated 2018).

Target: T1, recombinant human DLL3-Flag (Homo sapiens, UniProt Q9NYJ7)
T1 construct: Based on the apparent size of the DLL3 antigen (where the ECD is approximately 56 kD); Flag; purchased Adipogen International
T1 sequence (Q9NYJ7 27-492 limits assumed): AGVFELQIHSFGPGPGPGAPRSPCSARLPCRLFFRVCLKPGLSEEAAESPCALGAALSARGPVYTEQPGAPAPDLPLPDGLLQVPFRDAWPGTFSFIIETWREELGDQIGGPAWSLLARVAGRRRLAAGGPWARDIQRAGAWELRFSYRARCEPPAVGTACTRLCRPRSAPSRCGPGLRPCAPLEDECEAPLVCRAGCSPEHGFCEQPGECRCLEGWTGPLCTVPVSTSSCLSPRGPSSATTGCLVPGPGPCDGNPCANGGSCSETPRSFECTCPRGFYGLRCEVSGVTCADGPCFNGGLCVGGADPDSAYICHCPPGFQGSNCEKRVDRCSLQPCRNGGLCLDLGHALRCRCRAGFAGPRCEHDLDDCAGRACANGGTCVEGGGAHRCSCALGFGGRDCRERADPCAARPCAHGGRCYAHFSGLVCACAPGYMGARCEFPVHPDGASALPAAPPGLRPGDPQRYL
Assay: Antibody binning by competition on ForteBio RED
Assay type: binding
Text: As to antibody binning, a ForteBio RED was used per manufacturer's instructions to identify competing antibodies that bound to the same or different bins. Briefly, a reference antibody (Ab1) was captured onto an anti-mouse capture chip, a high concentration of non-binding antibody was then used to block the chip and a baseline was collected. Monomeric, recombinant human DLL3-Flag (Adipogen International) was then captured by the specific antibody (Ab1) and the tip was dipped into a well with either the same antibody (Ab1) as a control or into a well with a different test antibody (Ab2). […] If no further binding occurred, as determined by comparing binding levels with the control Ab1, then Ab2 was determined to be in the same bin. As known in the art this process can be expanded to screen large libraries of unique antibodies using a full row of antibodies representing unique bins in a 96-well plate. […] Based on the apparent size of the DLL3 antigen (where the ECD is approximately 56 kD) and the resolution of the binning methodology employed, it is believed that the nine identified bins represent the majority of the bins present on the DLL3 extracellular antigen.

bin relation to other antibodies: found not to bin with SC16.34 or SC16.56
B1: SC16.23: murine anti-DLL3 monoclonal antibody, sequences in FIGS. 3A and 3B (antibody, V domains shown)
VL: QIVLTQSPAIMSASPGEKVTLTCSASSSVSSRYLYWYQQKPGSSPKLWIYSTSNLASGVPARFSGSGSGTSYSLIISSMEAEDAASYFCHQWSNYPLTFGAGTKLELK
VH: QVTLKESGPGILQPSQTLSLTCSFSGFSLSTSNTGIGWIRQPSGTGLEWLAHIWWNDDKYYNPSLKSRLTISKETSNNQVFLKITNVDTADTASYFCVQIGRDYSNYAWYFDVWGAGTTVTVSS
